Measured values: the Human Domainome abundance scans (Beltran et al. 2025)
± gives the uncertainty stated by the source.

B1: POU domain, class 3, transcription factor 2, residues 262 to 338; numbered along this chain, P20265 (parent)
chain: EDTPTSDDLEQFAKQFKQRRIKLGFTQADVGLALGTLYGNVFSQTTICRFEALQLSFKNMCKLKPLLNKWLEEADSS

Variants of: B1
Assay: abundance fitness (aPCA) (normalised: wild type 0, dead -1); higher = more abundant; growth selection in yeast, the domain comes from the species named
Details: Homo sapiens

Compared with K58C, K58A is higher in abundance fitness: -0.321 ± 0.096 for the first, -0.042 ± 0.036 for the second.

K58Q and K58S are within error of each other in abundance fitness: 0.024 ± 0.042 for the first, -0.053 ± 0.051 for the second.

P65G and P65N are within error of each other in abundance fitness: -0.108 ± 0.05 for the first, -0.138 ± 0.17 for the second.

P65C and P65K are within error of each other in abundance fitness: 0.038 ± 0.2 for the first, -0.213 ± 0.22 for the second.

P65V and E73L are within error of each other in abundance fitness: -0.082 ± 0.074 for the first, -0.013 ± 0.06 for the second.

E73V and E73Y are within error of each other in abundance fitness: -0.067 ± 0.073 for the first, 0.129 ± 0.14 for the second.

Compared with E73W, E73P is lower in abundance fitness: -0.076 ± 0.073 for the first, -0.416 ± 0.17 for the second.

T26Q and T26E are within error of each other in abundance fitness: -0.586 ± 0.092 for the first, -0.536 ± 0.058 for the second.

T26N and T26G are within error of each other in abundance fitness: -0.392 ± 0.088 for the first, -0.449 ± 0.036 for the second.

First: T26Y
Second: L34M
The abundance fitness of the first is lower: -0.89 ± 0.23 for the first, -0.035 ± 0.04 for the second.

Compared with L34C, L34A is lower in abundance fitness: -0.224 ± 0.05 for the first, -0.646 ± 0.068 for the second.

First: L34I
Second: L34R
The abundance fitness of the first is higher: -0.132 ± 0.057 for the first, -0.773 ± 0.054 for the second.

Going from D8C to D8N, the abundance fitness rises from -0.121 ± 0.057 to 0.047 ± 0.096.

Going from D8M to R19D, the abundance fitness falls from -0.056 ± 0.049 to -0.334 ± 0.11.

First: R19A
Second: R19V
The abundance fitness of the first is higher: -0.057 ± 0.036 for the first, -0.194 ± 0.033 for the second.

R19H and R19K are within error of each other in abundance fitness: -0.047 ± 0.067 for the first, 0.035 ± 0.051 for the second.

Compared with R19I, Q44R is higher in abundance fitness: -0.196 ± 0.073 for the first, -0.066 ± 0.028 for the second.

Going from Q44N to Q44P, the abundance fitness rises from -0.133 ± 0.06 to 0.023 ± 0.044.

Compared with Q44V, P4R is higher in abundance fitness: -0.098 ± 0.03 for the first, -0.027 ± 0.033 for the second.

P4A and P4N are within error of each other in abundance fitness: -0.03 ± 0.036 for the first, -0.095 ± 0.079 for the second.

First: P4S
Second: P4L
The abundance fitness of the first is lower: -0.018 ± 0.039 for the first, 0.164 ± 0.036 for the second.

K62M and K62I are within error of each other in abundance fitness: 0.02 ± 0.048 for the first, -0.045 ± 0.077 for the second.

Going from K62C to K62P, the abundance fitness falls from -0.25 ± 0.053 to -0.99 ± 0.15.

K62Y and K62G are within error of each other in abundance fitness: -0.263 ± 0.07 for the first, -0.189 ± 0.027 for the second.

R20D and R20A are the same in abundance fitness: -1.05 ± 0.24 for the first, -1.05 ± 0.1 for the second.

R20L and R20C are within error of each other in abundance fitness: -0.766 ± 0.066 for the first, -1.01 ± 0.18 for the second.

R20W and R20I are within error of each other in abundance fitness: -0.909 ± 0.096 for the first, -0.794 ± 0.31 for the second.

Going from R20Q to G31E, the abundance fitness rises from -0.87 ± 0.16 to -0.224 ± 0.04.

First: G31K
Second: G31V
The abundance fitness of the first is lower: -0.383 ± 0.065 for the first, -0.113 ± 0.034 for the second.

G31R and L55K are within error of each other in abundance fitness: -0.383 ± 0.036 for the first, -0.409 ± 0.066 for the second.

Compared with L55A, L55H is higher in abundance fitness: -0.567 ± 0.048 for the first, -0.266 ± 0.08 for the second.

A74M and A74R are within error of each other in abundance fitness: -0.088 ± 0.049 for the first, -0.036 ± 0.029 for the second.

Going from A74V to I47Y, the abundance fitness falls from 0.041 ± 0.034 to -0.339 ± 0.13.

I47H and I47N are within error of each other in abundance fitness: -0.65 ± 0.16 for the first, -0.798 ± 0.23 for the second.

First: I47S
Second: F42M
The abundance fitness of the first is lower: -0.782 ± 0.081 for the first, -0.004 ± 0.047 for the second.

F42T and F42I are within error of each other in abundance fitness: -0.061 ± 0.042 for the first, -0.037 ± 0.085 for the second.

Compared with F42P, F12G is lower in abundance fitness: -0.368 ± 0.062 for the first, -0.582 ± 0.14 for the second.

F12L and F12S are within error of each other in abundance fitness: -0.776 ± 0.17 for the first, -0.614 ± 0.12 for the second.

F12D and F12R are within error of each other in abundance fitness: -0.561 ± 0.23 for the first, -0.401 ± 0.11 for the second.

Going from F12W to G39F, the abundance fitness falls from -0.27 ± 0.18 to -0.621 ± 0.13.

First: G39H
Second: C48H
The abundance fitness of the first is lower: -0.19 ± 0.074 for the first, -0.029 ± 0.072 for the second.

C48D and C48R are within error of each other in abundance fitness: 0.052 ± 0.048 for the first, 0.004 ± 0.027 for the second.

C48T and C48I are within error of each other in abundance fitness: -0.064 ± 0.037 for the first, -0.134 ± 0.061 for the second.

First: L9K
Second: L9H
The abundance fitness of the first is lower: -0.606 ± 0.077 for the first, -0.352 ± 0.069 for the second.

L9S and L9D are within error of each other in abundance fitness: -0.564 ± 0.049 for the first, -0.497 ± 0.078 for the second.

First: L9P
Second: Q15D
The abundance fitness of the first is lower: -0.483 ± 0.067 for the first, -0.008 ± 0.068 for the second.

Q15R and Q15L are within error of each other in abundance fitness: -0.035 ± 0.027 for the first, -0.067 ± 0.039 for the second.

Going from Q15G to Q15E, the abundance fitness rises from -0.141 ± 0.027 to 0.018 ± 0.038.

Q15A and T5P are within error of each other in abundance fitness: -0.124 ± 0.034 for the first, -0.138 ± 0.042 for the second.

T5N and T5M are within error of each other in abundance fitness: 0.026 ± 0.046 for the first, -0.056 ± 0.044 for the second.

First: T5S
Second: S43V
The abundance fitness of the first is higher: -0.008 ± 0.032 for the first, -0.703 ± 0.056 for the second.

Going from S43A to S43H, the abundance fitness rises from -0.209 ± 0.034 to 0.007 ± 0.075.

Compared with S43K, S43I is lower in abundance fitness: -0.132 ± 0.053 for the first, -0.768 ± 0.19 for the second.

S43E and T3F are within error of each other in abundance fitness: -0.031 ± 0.039 for the first, -0.142 ± 0.1 for the second.

T3A and T3D are within error of each other in abundance fitness: -0.365 ± 0.042 for the first, -0.324 ± 0.06 for the second.

A52N and A52Q are within error of each other in abundance fitness: 0.008 ± 0.062 for the first, 0.056 ± 0.04 for the second.

Going from A52I to A52T, the abundance fitness rises from -0.632 ± 0.13 to -0.02 ± 0.036.

First: E72Y
Second: E72C
The abundance fitness of the first is lower: -0.217 ± 0.085 for the first, -0.042 ± 0.056 for the second.

E72S and E72M are within error of each other in abundance fitness: -0.13 ± 0.038 for the first, -0.117 ± 0.054 for the second.

E72Q and E72L are within error of each other in abundance fitness: 0.003 ± 0.051 for the first, 0.004 ± 0.035 for the second.

E72N and E72A are within error of each other in abundance fitness: -0.094 ± 0.063 for the first, -0.017 ± 0.037 for the second.

R49D and R49K are within error of each other in abundance fitness: 0.006 ± 0.054 for the first, 0.05 ± 0.045 for the second.

Compared with R49Q, C61E is lower in abundance fitness: 0.045 ± 0.04 for the first, -0.147 ± 0.037 for the second.

C61T and C61D are within error of each other in abundance fitness: -0.182 ± 0.045 for the first, -0.291 ± 0.075 for the second.

E1T and E1L are within error of each other in abundance fitness: -0.006 ± 0.14 for the first, -0.109 ± 0.065 for the second.

Going from E1K to L23E, the abundance fitness falls from -0.105 ± 0.18 to -0.578 ± 0.061.

L23N and L23Q are within error of each other in abundance fitness: -0.254 ± 0.083 for the first, -0.31 ± 0.063 for the second.

Compared with L23T, L23P is lower in abundance fitness: -0.486 ± 0.06 for the first, -0.887 ± 0.13 for the second.

Going from E51G to L71W, the abundance fitness rises from -0.818 ± 0.058 to -0.465 ± 0.12.

First: L71C
Second: L53S
The abundance fitness of the first is lower: -0.847 ± 0.37 for the first, -0.007 ± 0.038 for the second.

Going from L53E to L53K, the abundance fitness rises from -0.311 ± 0.053 to -0.06 ± 0.06.

L53Q and L53N are within error of each other in abundance fitness: -0.034 ± 0.049 for the first, -0.022 ± 0.11 for the second.

Compared with D75E, D75N is lower in abundance fitness: 0.071 ± 0.034 for the first, -0.032 ± 0.059 for the second.

D75W and D75C are within error of each other in abundance fitness: -0.085 ± 0.034 for the first, -0.161 ± 0.049 for the second.

Compared with D75Y, G35W is lower in abundance fitness: -0.046 ± 0.056 for the first, -0.239 ± 0.037 for the second.

V41T and V41I are within error of each other in abundance fitness: 0.009 ± 0.053 for the first, -0.157 ± 0.12 for the second.

V41W and V41R are within error of each other in abundance fitness: 0.004 ± 0.045 for the first, -0.023 ± 0.033 for the second.

Going from A28Q to A28T, the abundance fitness falls from -0.094 ± 0.044 to -0.198 ± 0.049.

Compared with A28K, A28H is lower in abundance fitness: 0.067 ± 0.056 for the first, -0.116 ± 0.083 for the second.

First: A28E
Second: V30I
The abundance fitness of the first is higher: 0.035 ± 0.042 for the first, -0.235 ± 0.15 for the second.

Compared with V30C, V30H is lower in abundance fitness: -0.176 ± 0.073 for the first, -0.529 ± 0.19 for the second.

Compared with V30R, V30P is higher in abundance fitness: -0.979 ± 0.11 for the first, -0.569 ± 0.091 for the second.

Q18V and Q18N are within error of each other in abundance fitness: -0.145 ± 0.036 for the first, -0.292 ± 0.22 for the second.

Q54G gave an abundance fitness of -0.23 ± 0.038.
